{
  "source": "paper PMC5784169",
  "about": "“Repression of Akt3 gene transcription by the tumor suppressor RIZ1”",
  "key": {"[1]": {"biological_target": "T1, GST-RIZ1-Zf1-3 (UniProt Q13029 360-506)", "T1 sequence": "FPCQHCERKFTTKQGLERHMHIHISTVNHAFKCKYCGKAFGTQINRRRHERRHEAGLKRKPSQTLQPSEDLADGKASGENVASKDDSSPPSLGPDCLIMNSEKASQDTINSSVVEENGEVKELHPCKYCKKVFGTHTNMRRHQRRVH", "test": "EMSA; abolished by 30-fold excess unlabeled probe; LightShift Chemiluminescent EMSA kit, native PAGE; buffer, salt, pH and temperature not stated", "settings": "protein: recombinant; tags: N-terminal GST (pGEX-KG); label: 3' biotin; blunt"}, "[2]": {"biological_target": "T2, GST-RIZ1-Zf8 (UniProt Q13029 1455-1478)", "T2 chain": "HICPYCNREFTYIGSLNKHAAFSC", "test": "EMSA; abolished by 30-fold excess unlabeled probe; LightShift Chemiluminescent EMSA kit, native PAGE; buffer, salt, pH and temperature not stated", "settings": "protein: recombinant; tags: N-terminal GST (pGEX-KG); label: 3' biotin; blunt"}},
  "data": [
    {"binder": "mouse Akt3 promoter CpG146 probe (dsDNA) DNA 1: GGGGAGGGGCCGTCTGCGCATGTGGCGGGAGTGCGGGCGA DNA 2: TCGCCCGCACTCCCGCCACATGCGCAGACGGCCCCTCCCC", "values": [
      {"measurement": "binding result", "setting": "[1]", "result": "binds"},
      {"measurement": "binding result", "setting": "[2]", "result": "binds"}
    ]}
  ]
}
